From IntAct's records for PubMed 22307274

B1: Histone chaperone RTT106 (Saccharomyces cerevisiae), P40161 (parent)
chain: MSKLFLDELPESLSRKIGTVVRVLPSSLEIFEELYKYALNENSNDRSGRHKKPRIDVSSDLLKTDEISETNTIFKLEGVSVLSPLRKKLDLVFYLSNVDGSPVITLLKGNDRELSIYQLNKNIKMASFLPVPEKPNLIYLFMTYTSCEDNKFSEPVVMTLNKENTLNQFKNLGLLDSNVTDFEKCVEYIRKQAILTGFKISNPFVNSTLVDTDAEKINSFHLQCHRGTKEGTLYFLPDHIIFGFKKPILLFDASDIESITYSSITRLTFNASLVTKDGEKYEFSMIDQTEYAKIDDYVKRKQMKDKSMSEELKAKSKSKGQATDGTADQPSILQEATRQMQDEKKAGVFSDDDEENDQNFEAESDLSDGSGQESSDGAEDGEEAEEDDEEDDEEEDKKGQSALNRDNSFASINGQPEQELQYKEFKEPLELEDIPIEIDNDDDEDDEDGSGVEYD

Variants of: B1
Conditions: with h3_yeast HHT1, P61830

Variant	effect of a mutation on the interaction
F269A	disrupting interaction strength
Q288A	decreasing interaction strength
Y261A	disrupting interaction strength
I259A	decreasing interaction strength

The remaining lines, values ahead:

effect of a mutation on the interaction	Variant
disrupting interaction strength	I294A
disrupting interaction strength	Y291A

Variants of: B1
Conditions: with h3_yeast HHT1, P61830
Remark: another data set of the same source

effect of a mutation on the interaction	Variant
disrupting interaction strength	D295A
disrupting interaction strength	I259A
disrupting interaction strength	Y297A
